# B1: MEK1-C1 (d280-323) (protein)
# chain: EAFLTQKQKVGELKDDDFEKISELGAGNGGVVFKVSHKPSGLVMARKLIHLEIKPAIRNQIIRELQVLHECNSPYIVGFYGAFYSDGEISICMEHMDGGSLDQVLKKAGRIPEQILGKVSIAVIKGLTYLREKHKIMHRDVKPSNILVNSRGEIKLCDFGVSGQLIDSMANSFVGTRSYMSPERLQGTHYSVQSDIWSMGLSLVEMAVGRYPIPPPDAKELELMFGCQVKLPSGVFSLEFQDFVNKCLIKNPAERADLKQLMVHAFIKRSDAEEVDFAGWLCSTIGLNQPSTPTHAAGV
# B2: MEK1 (wt)(d280-323) (protein)
# chain: MPKKKPTPIQLNPAPDGSAVNGTSSAETNLEALQKKLEELELDEQQRKRLEAFLTQKQKVGELKDDDFEKISELGAGNGGVVFKVSHKPSGLVMARKLIHLEIKPAIRNQIIRELQVLHECNSPYIVGFYGAFYSDGEISICMEHMDGGSLDQVLKKAGRIPEQILGKVSIAVIKGLTYLREKHKIMHRDVKPSNILVNSRGEIKLCDFGVSGQLIDSMANSFVGTRSYMSPERLQGTHYSVQSDIWSMGLSLVEMAVGRYPIPPPDAKELELMFGCQVKLPSGVFSLEFQDFVNKCLIKNPAERADLKQLMVHAFIKRSDAEEVDFAGWLCSTIGLNQPSTPTHAAGV
# B3: MEK1-C3 (d280-323) (protein)
# chain: LDEQQRKRLEAFLTQKQKVGELKDDDFEKISELGAGNGGVVFKVSHKPSGLVMARKLIHLEIKPAIRNQIIRELQVLHECNSPYIVGFYGAFYSDGEISICMEHMDGGSLDQVLKKAGRIPEQILGKVSIAVIKGLTYLREKHKIMHRDVKPSNILVNSRGEIKLCDFGVSGQLIDSMANSFVGTRSYMSPERLQGTHYSVQSDIWSMGLSLVEMAVGRYPIPPPDAKELELMFGCQVKLPSGVFSLEFQDFVNKCLIKNPAERADLKQLMVHAFIKRSDAEEVDFAGWLCSTIGLNQPSTPTHAAGV
# B4: MEK1-C2 (d280-323) (protein)
# chain: ELKDDDFEKISELGAGNGGVVFKVSHKPSGLVMARKLIHLEIKPAIRNQIIRELQVLHECNSPYIVGFYGAFYSDGEISICMEHMDGGSLDQVLKKAGRIPEQILGKVSIAVIKGLTYLREKHKIMHRDVKPSNILVNSRGEIKLCDFGVSGQLIDSMANSFVGTRSYMSPERLQGTHYSVQSDIWSMGLSLVEMAVGRYPIPPPDAKELELMFGCQVKLPSGVFSLEFQDFVNKCLIKNPAERADLKQLMVHAFIKRSDAEEVDFAGWLCSTIGLNQPSTPTHAAGV
# Columns and labels:
# [1] = system: glutathione-S-transferase fusion protein of kinase-inactive ERK1 (GSTERK1K71R); assay: Kinase activity of the modified MEK1 peptides, GSTERK1K71R substrate, [γ-32P]ATP; type: biochemical; settings: after Raf activation; 50 ng modified MEK peptide, 10 μM ATP, room temperature 20 minutes; initial experiments
# Procedure: The modified MEK peptides (50 ng) were assayed in 20 mM HEPES (N-2-hydroxyethyl-piperazine-N′-2-ethanesulfonic acid) pH 7.5, 10 mM MgCl2, […] (ethylene glycol bis(2-aminoethyl ether)-N,N,N′N′-tetraacetic acid), 10 μM ATP, with 5 μCi [γ-^32P] ATP. Appropriate samples had 0.5 units of Raf-1 (UBI) added, and the reaction started with the addition of 1 μg GSTERK1 (K71R). The reactions were incubated at room temperature for 20 minutes, then quenched with 5 μl 6×Laemmli sample buffer. The samples were then resolved by SDS-PAGE, and the phosphoproteins visualized by autoradiography. Radiolabel incorporated into ERK was quantitated by excision of the protein band from the gel and counting in a standard scintillation counter. Initial experiments with the modified MEK1 s generated the following specific activities in units of pmol PO4 min-1 mg-1 after Raf activation: WT: 8380.6, WTsPR: 40.1, C1FL: 773.3, ClsPR: 35.9, C2FL: 537.5, C2sPR: 24.1, C3FL: 441.7 and C3sPR: 26.9.
# [2] = system: colon carcinomas of both mouse and human origin; settings: cited from earlier work
# MAPK = settings: correlated with efficacy; cited from earlier work
# [3] = biological target: T1, glutathione-S-transferase fusion protein of kinase-inactive ERK1 (GSTERK1K71R), P27361
# T1 chain: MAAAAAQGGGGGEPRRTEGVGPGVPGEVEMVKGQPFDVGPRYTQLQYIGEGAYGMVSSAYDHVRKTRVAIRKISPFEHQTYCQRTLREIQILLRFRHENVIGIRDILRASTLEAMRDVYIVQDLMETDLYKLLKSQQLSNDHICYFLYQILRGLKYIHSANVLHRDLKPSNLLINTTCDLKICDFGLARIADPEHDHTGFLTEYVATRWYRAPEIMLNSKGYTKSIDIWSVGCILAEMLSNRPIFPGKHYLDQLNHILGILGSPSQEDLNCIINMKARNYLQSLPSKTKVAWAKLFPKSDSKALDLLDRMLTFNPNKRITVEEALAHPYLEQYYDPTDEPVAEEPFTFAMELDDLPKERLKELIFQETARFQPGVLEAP
Molecule,specific activities [1],specific activity after Raf activation (32P incorporated into ERK) [3],further results
"WT: Wild-type human MEK1, full-length peptide of SEQ ID NO: 2, expressed in E. coli",8380.6 pmol PO4 min-1 mg-1,–,–
C1FL: NH2-terminally truncated MEK1 encoding amino acids 51-393 of SEQ ID NO: 2,773.3 pmol PO4 min-1 mg-1,–,–
"O=C(NOCC1CC1)c1ccc(F)c(F)c1Nc1ccc(I)cc1Cl [2-(2-chloro-4-iodo-phenylamino)-N-cyclopropylmethoxy-3,4-difluoro-benzamide]",–,–,"tumor growth inhibited ([2]; mice with colon carcinomas of both mouse and human origin, after treatment with inhibitor): ≤ 80%; toxicity ([2]; wide range of doses, mice): no signs of toxicity; levels of MAPK in excised tumors (MAPK): reduction in levels of MAPK"
C2FL: NH2-terminally truncated MEK1 having peptide of amino acid residues 62 to 393 of SEQ ID NO: 2,537.5 pmol PO4 min-1 mg-1,–,–
C3FL: NH2-terminally truncated MEK1 having peptide of amino acid residues 42 to 393 of SEQ ID NO: 2,441.7 pmol PO4 min-1 mg-1,–,–
B1,35.9 pmol PO4 min-1 mg-1,ClsPR: 35.9,–
B2,40.1 pmol PO4 min-1 mg-1,WTsPR: 40.1,–
B3,26.9 pmol PO4 min-1 mg-1,C3sPR: 26.9,–
B4,24.1 pmol PO4 min-1 mg-1,C2sPR: 24.1,–

# From patent US20030224500A1, “Modified MEK1 and MEK2, crystal of a peptide: ligand: cofactor complex containing such modified MEK1 or MEK2, and methods of use thereof” (priority 2001, published 2003)
